This is an account of results in patent publication US20060240044A1.

In the experiment the target is human Vβ1.1 TcR (human). The experiment is described as follows: cell-based or functional assay.

recombinant SPE-L: the Percentage of Vβ enrichment (Vβ 1.1) was found to be 8.44%; the Vβ cDNA clones from toxin stimulated T cells identified as Vβ1.1 is 5 of 5 cDNAs; the stimulation of T cells carrying the Vβ1.1 TcR, against ConA (further results) was > 80 times; the stimulation of T cells carrying the Vβ1.1 TcR, against ConA (initial results) is > 50 times.
Taken in the same sequence, the figures for recombinant SPE-M were 6.75%, 4 of 5 cDNAs, 70 times and > 60 times.
